± gives the standard deviation of the averaged measurements.
Legend:
MCF7 = experiment: percentage of EdU-negative (G0-arrested) nuclei per well, 72 h; higher = more G0 arrest; settings: reference: sequence is the full UniProt precursor, the tested protein was the secreted form or ectodomain
hTERT-HMEC = experiment: as above; settings: reference: sequence is the full UniProt precursor, the tested protein was the secreted form or ectodomain
[1] = protein concentration 0.0225 µM
[2] = protein concentration 0.0257143 µM
[3] = protein concentration 0.257143 µM
[4] = protein concentration 0.02225 µM
[5] = protein concentration 0.2225 µM
[6] = protein concentration 0.0075 µM
[7] = protein concentration 0.0231575 µM
[8] = protein concentration 0.231575 µM
[9] = protein concentration 0.013725 µM
[10] = protein concentration 0.13725 µM
[11] = protein concentration 0.01375 µM
[12] = protein concentration 0.1375 µM
[13] = protein concentration 0.00575 µM
[14] = protein concentration 0.0575 µM
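Note: secreted proteins added to cultured cells, EdU pulse at the end, nuclei found by Hoechst imaging, EdU status from nuclear versus surrounding ring intensity ratio, PBS as neutral control.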

Substance: MWWRVLSLLAWFPLQEASLTNHTETITVEEGQTLTLKCVTSLRKNSSLQWLTPSGFTIFLNEYPALKNSKYQLLHHSANQLSITVPNVTLQDEGVYKCLHYSDSVSTKEVKVIVLATPFKPILEASVIRKQNGEEHVVLMCSTMRSKPPPQITWLLGNSMEVSGGTLHEFETDGKKCNTTSTLIIHTYGKNSTVDCIIRHRGLQGRKLVAPFRFEDLVTDEETASDALERNSLSSQDPQQPTSTVSVTEDSSTSEIDKEEKEQTTQDPDLTTEANPQYLGLARKKSGILLLTLVSFLIFILFIIVQLFIMKLRKAHVIWKKENEVSEHTLESYRSRSNNEETSSEEKNGQSSHPMRCMNYITKLYSEAKTKRKENVQHSKLEEKHIQVPESIV
- percentage of EdU-negative (MCF7; [1]): 25.3 ± 1.9%
- percentage of EdU-negative (MCF7; protein concentration 0.225 µM): 25.7 ± 2.4%
- percentage of EdU-negative (hTERT-HMEC; [1]): 4.57 ± 0.2%
- percentage of EdU-negative (hTERT-HMEC; protein concentration 0.225 µM): 4.66 ± 0.87%

Substance: MYLSICCCFLLWAPALTLKNLNYSVPEEQGAGTVIGNIGRDARLQPGLPPAERGGGGRSKSGSYRVLENSAPHLLDVDADSGLLYTKQRIDRESLCRHNAKCQLSLEVFANDKEICMIKVEIQDINDNAPSFSSDQIEMDISENAAPGTRFPLTSAHDPDAGENGLRTYLLTRDDHGLFGLDVKSRGDGTKFPELVIQKALDREQQNHHTLVLTALDGGEPPRSATVQINVKVIDSNDNSPVFEAPSYLVELPENAPLGTVVIDLNATDADEGPNGEVLYSFSSYVPDRVRELFSIDPKTGLIRVKGNLDYEENGMLEIDVQARDLGPNPIPAHCKVTVKLIDRNDNAPSIGFVSVRQGALSEAAPPGTVIALVRVTDRDSGKNGQLQCRVLGGGGTGGGGGLGGPGGSVPFKLEENYDNFYTVVTDRPLDRETQDEYNVTIVARDGGSPPLNSTKSFAIKILDENDNPPRFTKGLYVLQVHENNIPGEYLGSVLAQDPDLGQNGTVSYSILPSHIGDVSIYTYVSVNPTNGAIYALRSFNFEQTKAFEFKVLAKDSGAPAHLESNATVRVTVLDVNDNAPVIVLPTLQNDTAELQVPRNAGLGYLVSTVRALDSDFGESGRLTYEIVDGNDDHLFEIDPSSGEIRTLHPFWEDVTPVVELVVKVTDHGKPTLSAVAKLIIRSVSGSLPEGVPRVNGEQHHWDMSLPLIVTLSTISIILLAAMITIAVKCKRENKEIRTYNCRIAEYSHPQLGGGKGKKKKINKNDIMLVQSEVEERNAMNVMNVVSSPSLATSPMYFDYQTRLPLSSPRSEVMYLKPASNNLTVPQGHAGCHTSFTGQGTNASETPATRMSIIQTDNFPAEPNYMGSRQQFVQSSSTFKDPERASLRDSGHGDSDQADSDQDTNKGSCCDMSVREALKMKTTSTKSQPLEQEPEECVNCTDECRVLGHSDRCWMPQFPAANQAENADYRTNLFVPTVEANVETETYETVNPTGKKTFCTFGKDKREHTILIANVKPYLKAKRALSPLLQEVPSASSSPTKACIEPCTSTKGSLDGCEAKPGALAEASSQYLPTDSQYLSPSKQPRDPPFMASDQMARVFADVHSRASRDSSEMGAVLEQLDHPNRDLGRESVDAEEVVREIDKLLQDCRGNDPVAVRK
- percentage of EdU-negative (MCF7; [2]): 23.2 ± 3%
- percentage of EdU-negative (MCF7; [3]): 26.6 ± 0.28%
- percentage of EdU-negative (hTERT-HMEC; [2]): 4.62 ± 0.4%
- percentage of EdU-negative (hTERT-HMEC; [3]): 7.27 ± 0.33%

Substance: MYLSRFLSIHALWVTVSSVMQPYPLVWGHYDLCKTQIYTEEGKVWDYMACQPESTDMTKYLKVKLDPPDITCGDPPETFCAMGNPYMCNNECDASTPELAHPPELMFDFEGRHPSTFWQSATWKEYPKPLQVNITLSWSKTIELTDNIVITFESGRPDQMILEKSLDYGRTWQPYQYYATDCLDAFHMDPKSVKDLSQHTVLEIICTEEYSTGYTTNSKIIHFEIKDRFAFFAGPRLRNMASLYGQLDTTKKLRDFFTVTDLRIRLLRPAVGEIFVDELHLARYFYAISDIKVRGRCKCNLHATVCVYDNSKLTCECEHNTTGPDCGKCKKNYQGRPWSPGSYLPIPKGTANTCIPSISSIGNCECFGHSNRCSYIDLLNTVICVSCKHNTRGQHCELCRLGYFRNASAQLDDENVCIECYCNPLGSIHDRCNGSGFCECKTGTTGPKCDECLPGNSWHYGCQPNVCDNELLHCQNGGTCHNNVRCLCPAAYTGILCEKLRCEEAGSCGSDSGQGAPPHGSPALLLLTTLLGTASPLVF [Q9Y2I2]
- percentage of EdU-negative (MCF7; [4]): 26.06 ± 0.23%
- percentage of EdU-negative (MCF7; [5]): 28.6 ± 3.7%
- percentage of EdU-negative (hTERT-HMEC; [4]): 5.38 ± 0.34%
- percentage of EdU-negative (hTERT-HMEC; [5]): 5.84 ± 1.4%

Substance: MYLVAGDRGLAGCGHLLVSLLGLLLLLARSGTRALVCLPCDESKCEEPRNCPGSIVQGVCGCCYTCASQRNESCGGTFGIYGTCDRGLRCVIRPPLNGDSLTEYEAGVCEDENWTDDQLLGFKPCNENLIAGCNIINGKCECNTIRTCSNPFEFPSQDMCLSALKRIEEEKPDCSKARCEVQFSPRCPEDSVLIEGYAPPGECCPLPSRCVCNPAGCLRKVCQPGNLNILVSKASGKPGECCDLYECKPVFGVDCRTVECPPVQQTACPPDSYETQVRLTADGCCTLPTRCECLSGLCGFPVCEVGSTPRIVSRGDGTPGKCCDVFECVNDTKPACVFNNVEYYDGDMFRMDNCRFCRCQGGVAICFTAQCGEINCERYYVPEGECCPVCEDPVYPFNNPAGCYANGLILAHGDRWREDDCTFCQCVNGERHCVATVCGQTCTNPVKVPGECCPVCEEPTIITVDPPACGELSNCTLTGKDCINGFKRDHNGCRTCQCINTEELCSERKQGCTLNCPFGFLTDAQNCEICECRPRPKKCRPIICDKYCPLGLLKNKHGCDICRCKKCPELSCSKICPLGFQQDSHGCLICKCREASASAGPPILSGTCLTVDGHHHKNEESWHDGCRECYCLNGREMCALITCPVPACGNPTIHPGQCCPSCADDFVVQKPELSTPSICHAPGGEYFVEGETWNIDSCTQCTCHSGRVLCETEVCPPLLCQNPSRTQDSCCPQCTDQPFRPSLSRNNSVPNYCKNDEGDIFLAAESWKPDVCTSCICIDSVISCFSESCPSVSCERPVLRKGQCCPYCIEDTIPKKVVCHFSGKAYADEERWDLDSCTHCYCLQGQTLCSTVSCPPLPCVEPINVEGSCCPMCPEMYVPEPTNIPIEKTNHRGEVDLEVPLWPTPSENDIVHLPRDMGHLQVDYRDNRLHPSEDSSLDSIASVVVPIIICLSIIIAFLFINQKKQWIPLLCWYRTPTKPSSLNNQLVSVDCKKGTRVQVDSSQRMLRIAEPDARFSGFYSMQKQNHLQADNFYQTV [Q9NZV1]
- percentage of EdU-negative (MCF7; [6]): 24.3 ± 2.8%
- percentage of EdU-negative (MCF7; protein concentration 0.075 µM): 25.9 ± 0.87%
- percentage of EdU-negative (hTERT-HMEC; [6]): 4.66 ± 0.59%
- percentage of EdU-negative (hTERT-HMEC; protein concentration 0.075 µM): 5.81 ± 1.6%

Substance: MYREWVVVNVFMMLYVQLVQGSSNEHGPVKRSSQSTLERSEQQIRAASSLEELLRITHSEDWKLWRCRLRLKSFTSMDSRSASHRSTRFAATFYDIETLKVIDEEWQRTQCSPRETCVEVASELGKSTNTFFKPPCVNVFRCGGCCNEESLICMNTSTSYISKQLFEISVPLTSVPELVPVKVANHTGCKCLPTAPRHPYSIIRRSIQIPEEDRCSHSKKLCPIDMLWDSNKCKCVLQEENPLAGTEDHSHLQEPALCGPHMMFDEDRCECVCKTPCPKDLIQHPKNCSCFECKESLETCCQKHKLFHPDTCSCEDRCPFHTRPCASGKTACAKHCRFPKEKRAAQGPHSRKNP
- percentage of EdU-negative (MCF7; [7]): 27.2 ± 0.62%
- percentage of EdU-negative (MCF7; [8]): 28.82 ± 0.28%
- percentage of EdU-negative (hTERT-HMEC; [7]): 4.71 ± 0.18%
- percentage of EdU-negative (hTERT-HMEC; [8]): 7.16 ± 1.6%

Substance: MYRHGISSQRSWPLWTTIFIFLGVAAILGVTIGLLVHFLAVEKTYYYQGDFHISGVTYNDNCENAASQASTNLSKDIETKMLNAFQNSSIYKEYVKSEVIKLLPNANGSNVQLQLKFKFPPAEGVSMRTKIKAKLHQMLKNNMASWNAVPASIKLMEISKAASEMLTNNCCGRQVANSIITGNKIVNGKSSLEGAWPWQASMQWKGRHYCGASLISSRWLLSAAHCFAKKNNSKDWTVNFGIVVNKPYMTRKVQNIIFHENYSSPGLHDDIALVQLAEEVSFTEYIRKICLPEAKMKLSENDNVVVTGWGTLYMNGSFPVILQEDFLKIIDNKICNASYAYSGFVTDTMLCAGFMSGEADACQNDSGGPLAYPDSRNIWHLVGIVSWGDGCGKKNKPGVYTRVTSYRNWITSKTGL [Q86T26]
- percentage of EdU-negative (MCF7; [2]): 23.6 ± 1.4%
- percentage of EdU-negative (MCF7; [3]): 25.2 ± 1.9%
- percentage of EdU-negative (hTERT-HMEC; [2]): 5.22 ± 1.8%
- percentage of EdU-negative (hTERT-HMEC; [3]): 5.69 ± 1%

Substance: MYSAPSACTCLCLHFLLLCFQVQVLVAEENVDFRIHVENQTRARDDVSRKQLRLYQLYSRTSGKHIQVLGRRISARGEDGDKYAQLLVETDTFGSQVRIKGKETEFYLCMNRKGKLVGKPDGTSKECVFIEKVLENNYTALMSAKYSGWYVGFTKKGRPRKGPKTRENQQDVHFMKRYPKGQPELQKPFKYTTVTKRSRRIRPTHPA
- percentage of EdU-negative (MCF7; [9]): 24.26 ± 0.046%
- percentage of EdU-negative (MCF7; [10]): 22.8 ± 0.92%
- percentage of EdU-negative (hTERT-HMEC; [9]): 4.7 ± 1.1%
- percentage of EdU-negative (hTERT-HMEC; [10]): 5.41 ± 0.5%

Substance: MYTAIPQSGSPFPGSVQDPGLHVWRVEKLKPVPVAQENQGVFFSGDSYLVLHNGPEEVSHLHLWIGQQSSRDEQGACAVLAVHLNTLLGERPVQHREVQGNESDLFMSYFPRGLKYQEGGVESAFHKTSTGAPAAIKKLYQVKGKKNIRATERALNWDSFNTGDCFILDLGQNIFAWCGGKSNILERNKARDLALAIRDSERQGKAQVEIVTDGEEPAEMIQVLGPKPALKEGNPEEDLTADKANAQAAALYKVSDATGQMNLTKVADSSPFALELLISDDCFVLDNGLCGKIYIWKGRKANEKERQAALQVAEGFISRMQYAPNTQVEILPQGHESPIFKQFFKDWK
- percentage of EdU-negative (MCF7; [1]): 24.6 ± 2.7%
- percentage of EdU-negative (MCF7; protein concentration 0.225 µM): 26.02 ± 0.14%
- percentage of EdU-negative (hTERT-HMEC; [1]): 5.3073 ± 0.0047%
- percentage of EdU-negative (hTERT-HMEC; protein concentration 0.225 µM): 6.38 ± 0.68%

Substance: O60486
- percentage of EdU-negative (MCF7; [11]): 23.37 ± 0.13%
- percentage of EdU-negative (MCF7; [12]): 26.9 ± 3%
- percentage of EdU-negative (hTERT-HMEC; [11]): 4.77 ± 0.19%
- percentage of EdU-negative (hTERT-HMEC; [12]): 10.8 ± 1%

Substance: P0C0L4
- percentage of EdU-negative (MCF7; [13]): 24.22 ± 0.12%
- percentage of EdU-negative (MCF7; [14]): 26.1 ± 0.47%
- percentage of EdU-negative (hTERT-HMEC; [13]): 4.91 ± 0.16%
- percentage of EdU-negative (hTERT-HMEC; [14]): 5.66 ± 0.38%
